In US20190185537A1 (AstraZeneca / MedImmune, published 2019):
Numbered stars: 1 amine (or outer) side, 2 acyl side, 3 side chain; on linkers, the order of the positions; unused ones are H or OH. Side chains are listed from the residue outwards. Ends that are not written are not given here. * marks the point of attachment. γGlu = O=C(O)[C@H](CCC(=O)[*:2])N[*:1]; Palmitoyl = CCCCCCCCCCCCCCCC(=O)*

T1: human glucose-dependent insulinotropic peptide (gastric inhibitory polypeptide) receptor (human) (UniProt P48546)
T1 sequence (looked up): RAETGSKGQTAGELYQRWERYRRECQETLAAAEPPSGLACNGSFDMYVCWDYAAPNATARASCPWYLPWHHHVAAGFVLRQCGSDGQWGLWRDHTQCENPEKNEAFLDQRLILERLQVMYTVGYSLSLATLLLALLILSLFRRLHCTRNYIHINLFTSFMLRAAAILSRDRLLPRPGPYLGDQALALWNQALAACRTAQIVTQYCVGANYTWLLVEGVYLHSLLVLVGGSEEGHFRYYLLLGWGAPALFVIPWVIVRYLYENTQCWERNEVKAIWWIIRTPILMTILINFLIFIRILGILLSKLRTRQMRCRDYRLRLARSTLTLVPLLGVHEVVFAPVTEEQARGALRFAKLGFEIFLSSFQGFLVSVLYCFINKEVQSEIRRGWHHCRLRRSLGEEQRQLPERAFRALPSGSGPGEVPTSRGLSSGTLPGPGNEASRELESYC

B1: g823 (peptide)
peptide: HSQGTFTSDYSRYLDSK([γGlu-Palmitoyl])RARDFVEWLVAGG-NH2
modifications: N-terminus assumed
SMILES: CCCCCCCCCCCCCCCC(=O)N[C@@H](CCC(=O)NCCCC[C@H](NC(=O)[C@H](CO)NC(=O)[C@H](CC(=O)O)NC(=O)[C@H](CC(C)C)NC(=O)[C@H](Cc1ccc(O)cc1)NC(=O)[C@H](CCCNC(=N)N)NC(=O)[C@H](CO)NC(=O)[C@H](Cc1ccc(O)cc1)NC(=O)[C@H](CC(=O)O)NC(=O)[C@H](CO)NC(=O)[C@@H](NC(=O)[C@H](Cc1ccccc1)NC(=O)[C@@H](NC(=O)CNC(=O)[C@H](CCC(N)=O)NC(=O)[C@H](CO)NC(=O)[C@@H](N)Cc1c[nH]cn1)[C@@H](C)O)[C@@H](C)O)C(=O)N[C@@H](CCCNC(=N)N)C(=O)N[C@@H](C)C(=O)N[C@@H](CCCNC(=N)N)C(=O)N[C@@H](CC(=O)O)C(=O)N[C@@H](Cc1ccccc1)C(=O)N[C@H](C(=O)N[C@@H](CCC(=O)O)C(=O)N[C@@H](Cc1c[nH]c2ccccc12)C(=O)N[C@@H](CC(C)C)C(=O)N[C@H](C(=O)N[C@@H](C)C(=O)NCC(=O)NCC(N)=O)C(C)C)C(C)C)C(=O)O
B2: g824 (peptide)
peptide: HSQGTFTSDYSKYK([γGlu-Palmitoyl])DSRRARDFVEWLEAGG-NH2
modifications: N-terminus assumed
SMILES: CCCCCCCCCCCCCCCC(=O)N[C@@H](CCC(=O)NCCCC[C@H](NC(=O)[C@H](Cc1ccc(O)cc1)NC(=O)[C@H](CCCCN)NC(=O)[C@H](CO)NC(=O)[C@H](Cc1ccc(O)cc1)NC(=O)[C@H](CC(=O)O)NC(=O)[C@H](CO)NC(=O)[C@@H](NC(=O)[C@H](Cc1ccccc1)NC(=O)[C@@H](NC(=O)CNC(=O)[C@H](CCC(N)=O)NC(=O)[C@H](CO)NC(=O)[C@@H](N)Cc1c[nH]cn1)[C@@H](C)O)[C@@H](C)O)C(=O)N[C@@H](CC(=O)O)C(=O)N[C@@H](CO)C(=O)N[C@@H](CCCNC(=N)N)C(=O)N[C@@H](CCCNC(=N)N)C(=O)N[C@@H](C)C(=O)N[C@@H](CCCNC(=N)N)C(=O)N[C@@H](CC(=O)O)C(=O)N[C@@H](Cc1ccccc1)C(=O)N[C@H](C(=O)N[C@@H](CCC(=O)O)C(=O)N[C@@H](Cc1c[nH]c2ccccc12)C(=O)N[C@@H](CC(C)C)C(=O)N[C@@H](CCC(=O)O)C(=O)N[C@@H](C)C(=O)NCC(=O)NCC(N)=O)C(C)C)C(=O)O
B3: g798 (peptide)
peptide: HSQGTFTSDK([γGlu-Palmitoyl])SKYLDSERARDFVAWLEAGG-NH2
modifications: N-terminus assumed
SMILES: CCCCCCCCCCCCCCCC(=O)N[C@@H](CCC(=O)NCCCC[C@H](NC(=O)[C@H](CC(=O)O)NC(=O)[C@H](CO)NC(=O)[C@@H](NC(=O)[C@H](Cc1ccccc1)NC(=O)[C@@H](NC(=O)CNC(=O)[C@H](CCC(N)=O)NC(=O)[C@H](CO)NC(=O)[C@@H](N)Cc1c[nH]cn1)[C@@H](C)O)[C@@H](C)O)C(=O)N[C@@H](CO)C(=O)N[C@@H](CCCCN)C(=O)N[C@@H](Cc1ccc(O)cc1)C(=O)N[C@@H](CC(C)C)C(=O)N[C@@H](CC(=O)O)C(=O)N[C@@H](CO)C(=O)N[C@@H](CCC(=O)O)C(=O)N[C@@H](CCCNC(=N)N)C(=O)N[C@@H](C)C(=O)N[C@@H](CCCNC(=N)N)C(=O)N[C@@H](CC(=O)O)C(=O)N[C@@H](Cc1ccccc1)C(=O)N[C@H](C(=O)N[C@@H](C)C(=O)N[C@@H](Cc1c[nH]c2ccccc12)C(=O)N[C@@H](CC(C)C)C(=O)N[C@@H](CCC(=O)O)C(=O)N[C@@H](C)C(=O)NCC(=O)NCC(N)=O)C(C)C)C(=O)O
B4: g601 (peptide)
peptide: HSQGTFTSDYSKYK([γGlu-Palmitoyl])DSRRAQDFVQWLEAGG-NH2
modifications: N-terminus assumed
SMILES: CCCCCCCCCCCCCCCC(=O)N[C@@H](CCC(=O)NCCCC[C@H](NC(=O)[C@H](Cc1ccc(O)cc1)NC(=O)[C@H](CCCCN)NC(=O)[C@H](CO)NC(=O)[C@H](Cc1ccc(O)cc1)NC(=O)[C@H](CC(=O)O)NC(=O)[C@H](CO)NC(=O)[C@@H](NC(=O)[C@H](Cc1ccccc1)NC(=O)[C@@H](NC(=O)CNC(=O)[C@H](CCC(N)=O)NC(=O)[C@H](CO)NC(=O)[C@@H](N)Cc1c[nH]cn1)[C@@H](C)O)[C@@H](C)O)C(=O)N[C@@H](CC(=O)O)C(=O)N[C@@H](CO)C(=O)N[C@@H](CCCNC(=N)N)C(=O)N[C@@H](CCCNC(=N)N)C(=O)N[C@@H](C)C(=O)N[C@@H](CCC(N)=O)C(=O)N[C@@H](CC(=O)O)C(=O)N[C@@H](Cc1ccccc1)C(=O)N[C@H](C(=O)N[C@@H](CCC(N)=O)C(=O)N[C@@H](Cc1c[nH]c2ccccc12)C(=O)N[C@@H](CC(C)C)C(=O)N[C@@H](CCC(=O)O)C(=O)N[C@@H](C)C(=O)NCC(=O)NCC(N)=O)C(C)C)C(=O)O
B5: g867 (peptide)
peptide: HSQGTFTSDYSKYLDSK([γGlu-Palmitoyl])RARDFVAWLVAGG-NH2
modifications: N-terminus assumed
SMILES: CCCCCCCCCCCCCCCC(=O)N[C@@H](CCC(=O)NCCCC[C@H](NC(=O)[C@H](CO)NC(=O)[C@H](CC(=O)O)NC(=O)[C@H](CC(C)C)NC(=O)[C@H](Cc1ccc(O)cc1)NC(=O)[C@H](CCCCN)NC(=O)[C@H](CO)NC(=O)[C@H](Cc1ccc(O)cc1)NC(=O)[C@H](CC(=O)O)NC(=O)[C@H](CO)NC(=O)[C@@H](NC(=O)[C@H](Cc1ccccc1)NC(=O)[C@@H](NC(=O)CNC(=O)[C@H](CCC(N)=O)NC(=O)[C@H](CO)NC(=O)[C@@H](N)Cc1c[nH]cn1)[C@@H](C)O)[C@@H](C)O)C(=O)N[C@@H](CCCNC(=N)N)C(=O)N[C@@H](C)C(=O)N[C@@H](CCCNC(=N)N)C(=O)N[C@@H](CC(=O)O)C(=O)N[C@@H](Cc1ccccc1)C(=O)N[C@H](C(=O)N[C@@H](C)C(=O)N[C@@H](Cc1c[nH]c2ccccc12)C(=O)N[C@@H](CC(C)C)C(=O)N[C@H](C(=O)N[C@@H](C)C(=O)NCC(=O)NCC(N)=O)C(C)C)C(C)C)C(=O)O
B6: g717 (peptide)
peptide: HSQGTFTSDK([γGlu-Palmitoyl])SKYLDSRRAQDFVQWLEAGG-NH2
modifications: N-terminus assumed
SMILES: CCCCCCCCCCCCCCCC(=O)N[C@@H](CCC(=O)NCCCC[C@H](NC(=O)[C@H](CC(=O)O)NC(=O)[C@H](CO)NC(=O)[C@@H](NC(=O)[C@H](Cc1ccccc1)NC(=O)[C@@H](NC(=O)CNC(=O)[C@H](CCC(N)=O)NC(=O)[C@H](CO)NC(=O)[C@@H](N)Cc1c[nH]cn1)[C@@H](C)O)[C@@H](C)O)C(=O)N[C@@H](CO)C(=O)N[C@@H](CCCCN)C(=O)N[C@@H](Cc1ccc(O)cc1)C(=O)N[C@@H](CC(C)C)C(=O)N[C@@H](CC(=O)O)C(=O)N[C@@H](CO)C(=O)N[C@@H](CCCNC(=N)N)C(=O)N[C@@H](CCCNC(=N)N)C(=O)N[C@@H](C)C(=O)N[C@@H](CCC(N)=O)C(=O)N[C@@H](CC(=O)O)C(=O)N[C@@H](Cc1ccccc1)C(=O)N[C@H](C(=O)N[C@@H](CCC(N)=O)C(=O)N[C@@H](Cc1c[nH]c2ccccc12)C(=O)N[C@@H](CC(C)C)C(=O)N[C@@H](CCC(=O)O)C(=O)N[C@@H](C)C(=O)NCC(=O)NCC(N)=O)C(C)C)C(=O)O
B7: g780 (peptide)
peptide: HSQGTFTSDYSKYK([γGlu-Palmitoyl])DSRRARDFVAWLEAGG-NH2
modifications: N-terminus assumed
SMILES: CCCCCCCCCCCCCCCC(=O)N[C@@H](CCC(=O)NCCCC[C@H](NC(=O)[C@H](Cc1ccc(O)cc1)NC(=O)[C@H](CCCCN)NC(=O)[C@H](CO)NC(=O)[C@H](Cc1ccc(O)cc1)NC(=O)[C@H](CC(=O)O)NC(=O)[C@H](CO)NC(=O)[C@@H](NC(=O)[C@H](Cc1ccccc1)NC(=O)[C@@H](NC(=O)CNC(=O)[C@H](CCC(N)=O)NC(=O)[C@H](CO)NC(=O)[C@@H](N)Cc1c[nH]cn1)[C@@H](C)O)[C@@H](C)O)C(=O)N[C@@H](CC(=O)O)C(=O)N[C@@H](CO)C(=O)N[C@@H](CCCNC(=N)N)C(=O)N[C@@H](CCCNC(=N)N)C(=O)N[C@@H](C)C(=O)N[C@@H](CCCNC(=N)N)C(=O)N[C@@H](CC(=O)O)C(=O)N[C@@H](Cc1ccccc1)C(=O)N[C@H](C(=O)N[C@@H](C)C(=O)N[C@@H](Cc1c[nH]c2ccccc12)C(=O)N[C@@H](CC(C)C)C(=O)N[C@@H](CCC(=O)O)C(=O)N[C@@H](C)C(=O)NCC(=O)NCC(N)=O)C(C)C)C(=O)O

Target: human glucagon receptor (human, UniProt P47871 26-477)
Sequence (P47871 26-477): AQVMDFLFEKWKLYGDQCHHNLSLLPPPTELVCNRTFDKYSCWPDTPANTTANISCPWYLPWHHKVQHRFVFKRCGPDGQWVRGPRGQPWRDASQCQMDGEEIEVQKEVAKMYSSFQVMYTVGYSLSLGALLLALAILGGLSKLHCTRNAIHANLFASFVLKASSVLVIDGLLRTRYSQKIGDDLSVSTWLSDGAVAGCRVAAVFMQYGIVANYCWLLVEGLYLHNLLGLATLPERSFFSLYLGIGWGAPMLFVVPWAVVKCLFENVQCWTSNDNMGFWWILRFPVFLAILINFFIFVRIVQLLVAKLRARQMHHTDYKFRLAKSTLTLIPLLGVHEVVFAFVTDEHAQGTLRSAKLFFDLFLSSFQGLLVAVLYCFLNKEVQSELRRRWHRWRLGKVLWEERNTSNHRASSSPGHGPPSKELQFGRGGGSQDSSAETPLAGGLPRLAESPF
Test: cell-based or functional assay

cAMP EC50 (assay 1) [nM] | Binder
0.00948 | B1
0.00105 | B2
0.0053 | HSQGTFTSDYSKYLDSERARDFVAWLEAGG-NH2 [g840]
0.00051 | B3
0.000493 | B4
0.00704 | B5
0.000455 | B6
0.000792 | B7

Target: human GLP-1 receptor (human, UniProt P43220 24-463)
Sequence (P43220 24-463): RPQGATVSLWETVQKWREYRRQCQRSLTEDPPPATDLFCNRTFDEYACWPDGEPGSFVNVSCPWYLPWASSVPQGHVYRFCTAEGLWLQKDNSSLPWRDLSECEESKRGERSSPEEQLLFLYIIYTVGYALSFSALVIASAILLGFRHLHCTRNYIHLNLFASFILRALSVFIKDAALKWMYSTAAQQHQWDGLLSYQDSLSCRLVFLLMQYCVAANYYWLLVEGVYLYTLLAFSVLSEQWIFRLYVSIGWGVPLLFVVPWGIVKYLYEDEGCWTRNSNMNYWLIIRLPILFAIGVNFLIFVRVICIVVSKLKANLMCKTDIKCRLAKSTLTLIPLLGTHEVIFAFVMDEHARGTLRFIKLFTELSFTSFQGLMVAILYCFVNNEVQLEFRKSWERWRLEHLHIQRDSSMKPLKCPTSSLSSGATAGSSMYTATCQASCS
Test: cell-based or functional assay

cAMP EC50 (assay 1) [nM] | Binder
0.0973 | B1
0.0471 | B2
0.145 | HSQGTFTSDYSKYLDSERARDFVAWLEAGG-NH2 [g840]
0.00907 | B3
0.0398 | B4
0.0448 | B5
0.00577 | B6
0.012 | B7

Target: T1, human glucose-dependent insulinotropic peptide (gastric inhibitory polypeptide) receptor (human)
Test: cell-based or functional assay

cAMP EC50 (assay 1) [nM] | Binder
84.2 | B1
57.4 | B2
102 | HSQGTFTSDYSKYLDSERARDFVAWLEAGG-NH2 [g840]
1.51 | B3
74.1 | B4
41.7 | B5
1.48 | B6
64 | B7
